Experimental data published in patent US20220033483A1 (GUAGNDONG FEIPENG BIOLOGICAL, published 2022).
Positions count from the first letter of the chain named.

B1: WT 1-4 (antibody, V domains shown)
VH: QVQLQQSGTELAKPGASVKFSCKASDYTFSTYWMYWIKQRPGQGLEWIGYINPSSGHTEYNQRFKDKATLTADKSSSTAYMQLNSLTSEDSAVYYCARKYYGPFAMDYWGQGTSVTVSS
VL: EIFLTQSPAIMSASPGEKVTMTCSASTTVSYAHWYQQKSGTSPKRWLYDSSKIASGIPVRFSGSGSGTSYSLTISSMEAEDAATYYCQNWSTNPYTFGGGTKLEIKR
B2: Mutation 1-23 (antibody, V domains shown)
VH: B1 VH with D26G, S30T, T31S, S55T, E59D, Y101W, A105G
VL: B1 VL with T27S, T28S, A32V, L47I, S50T, I53L, N89Q, T92S
B3: Mutation 1-26 (antibody, V domains shown)
VH: B1 VH with D26G, S30T, I51L, S55T, E59D, R63K, K99R, Y101W, A105G
VL: B1 VL with T27S, A32V, S50T, I53L, N89Q, T92S
B4: Mutation 1-17 (antibody, V domains shown)
VH: B1 VH with D26G, T31S, S55T, E59D, Y101W, A105G
VL: B1 VL with T27S, T28S, A32V, L47I, S50T, N89Q, T92S, N93Q
B5: Mutation 1-14 (antibody, V domains shown)
VH: B1 VH with D26G, S30T, T31S, I51L, S55T, E59D, R63K, K99R, Y101W, A105G
VL: B1 VL with T27S, A32V, S50T, I53L, N89Q, N93Q
B6: Mutation 1-13 (antibody, V domains shown)
VH: B1 VH with D26G, T31S, I51L, E59D, K99R, A105G
VL: B1 VL with T27S, T28S, A32V, L47I, S50T, N89Q, N93Q
B7: Mutation 1-15 (antibody, V domains shown)
VH: B1 VH with D26G, S30T, I51L, E59D, Y101F, A105G
VL: B1 VL with T28S, A32V, L47I, S50T, I53L, N89Q, N93Q
notes: CDR-VL3 cell prints 'TQ', read as T/Q
B8: Mutation 1-19 (antibody, V domains shown)
VH: B1 VH with D26G, S30T, T31S, I51L, S55T, E59D, R63K, K99R, A105G
VL: B1 VL with T27S, T28S, A32V, L47I, S50T, I53L, N89Q, T92S, N93Q
B9: Mutation 1-21 (antibody, V domains shown)
VH: B1 VH with D26G, T31S, I51L, S55T, E59D, Y101F, A105G
VL: B1 VL with T28S, A32V, L47I, S50T, N89Q, T92S, N93Q
B10: Mutation 1-20 (antibody, V domains shown)
VH: B1 VH with D26G, I51L, E59D, R63K, K99R, Y101W, A105G
VL: B1 VL with T27S, A32V, S50T, N89Q, T92S, N93Q
B11: WT 1-7 (antibody, V domains shown)
VH: B1 VH with S30T, I51L, S55T, R63K, K99R
VL: B1 VL with T28S, L47I, I53L
B12: Mutation 1-25 (antibody, V domains shown)
VH: B1 VH with D26G, T31S, E59D, K99R, A105G
VL: B1 VL with T28S, A32V, L47I, S50T, N89Q, T92S
B13: Mutation 1-32 (antibody, V domains shown)
VH: B1 VH with D26G, I51L, E59D, Y101W, A105G
VL: B1 VL with T27S, A32V, S50T, N89Q, T92S
B14: WT 1-2 (antibody, V domains shown)
VH: B1 VH with S30T, T31S, K99R, Y101W
VL: B1 VL with T27S, I53L, T92S, N93Q
B15: WT 1-8 (antibody, V domains shown)
VH: B1 VH with S55T, R63K, K99R, Y101W
VL: B1 VL with N93Q
B16: Mutation 1-9 (antibody, V domains shown)
VH: B1 VH with D26G, T31S, E59D, Y101F, A105G
VL: B1 VL with T27S, T28S, A32V, L47I, S50T, N89Q, N93Q
B17: Mutation 1-1 (antibody, V domains shown)
VH: B1 VH with D26G, S55T, E59D, R63K, K99R, A105G
VL: B1 VL with T27S, T28S, A32V, L47I, S50T, N89Q
B18: Mutation 1-53 (antibody, V domains shown)
VH: B1 VH with D26G, T31S, S55T, E59D, A105G
VL: B1 VL with A32V, L47I, S50T, I53L, N89Q
B19: Mutation 1-55 (antibody, V domains shown)
VH: B1 VH with D26G, I51L, E59D, R63K, A105G
VL: B1 VL with A32V, L47I, S50T, I53L, N89Q
notes: T0002 combination 56 prints L/L
B20: WT 1-1 (antibody, V domains shown)
VH: B1 VH with S55T, R63K, K99R
VL: B1 VL with T27S, T28S, L47I
B21: Mutation 1-12 (antibody, V domains shown)
VH: B1 VH with D26G, I51L, S55T, E59D, K99R, Y101F, A105G
VL: B1 VL with A32V, S50T, N89Q, N93Q
B22: WT 1-5 (antibody, V domains shown)
VH: B1 VH with T31S, I51L, S55T, R63K, Y101W
VL: B1 VL with T27S, T28S, L47I
B23: Mutation 1-40 (antibody, V domains shown)
VH: B1 VH with D26G, I51L, E59D, K99R, Y101F, A105G
VL: B1 VL with T27S, A32V, S50T, N89Q
B24: Mutation 1-4 (antibody, V domains shown)
VH: B1 VH with D26G, E59D, A105G
VL: B1 VL with A32V, S50T, N89Q
B25: WT 1-6 (antibody, V domains shown)
VH: B1 VH with S30T, T31S, I51L, K99R, Y101F
VL: B1 VL with T27S, I53L
B26: Mutation 1-8 (antibody, V domains shown)
VH: B1 VH with D26G, S55T, E59D, R63K, K99R, Y101W, A105G
VL: B1 VL with A32V, S50T, N89Q, N93Q
B27: Mutation 1-24 (antibody, V domains shown)
VH: B1 VH with D26G, S55T, E59D, R63K, K99R, Y101F, A105G
VL: B1 VL with T27S, A32V, S50T, N89Q, T92S
B28: Mutation 1-16 (antibody, V domains shown)
VH: B1 VH with D26G, E59D, R63K, A105G
VL: B1 VL with A32V, S50T, N89Q, N93Q
B29: Mutation 1-54 (antibody, V domains shown)
VH: B1 VH with D26G, T31S, I51L, E59D, R63K, K99R, Y101F, A105G
VL: B1 VL with A32V, S50T, N89Q, N93Q
B30: Mutation 1-18 (antibody, V domains shown)
VH: B1 VH with D26G, S30T, E59D, K99R, Y101F, A105G
VL: B1 VL with A32V, S50T, I53L, N89Q, T92S, N93Q
B31: Mutation 1-44 (antibody, V domains shown)
VH: B1 VH with D26G, E59D, A105G
VL: B1 VL with T27S, T28S, A32V, L47I, S50T, N89Q
B32: Mutation 1-47 (antibody, V domains shown)
VH: B1 VH with D26G, S30T, I51L, S55T, E59D, R63K, K99R, A105G
VL: B1 VL with A32V, S50T, N89Q, N93Q
B33: WT 1-3 (antibody, V domains shown)
VH: B1 VH with S30T, S55T, R63K, Y101F
VL: B1 VL with T28S, L47I, I53L, T92S
B34: Mutation 1-28 (antibody, V domains shown)
VH: B1 VH with D26G, I51L, S55T, E59D, A105G
VL: B1 VL with A32V, S50T, N89Q, T92S
B35: Mutation 1-22 (antibody, V domains shown)
VH: B1 VH with D26G, S30T, I51L, E59D, R63K, A105G
VL: B1 VL with A32V, S50T, I53L, N89Q, T92S, N93Q
B36: Mutation 1-34 (antibody, V domains shown)
VH: B1 VH with D26G, S30T, T31S, E59D, R63K, A105G
VL: B1 VL with A32V, S50T, I53L, N89Q, T92S
B37: Mutation 1-36 (antibody, V domains shown)
VH: B1 VH with D26G, E59D, K99R, Y101W, A105G
VL: B1 VL with T27S, A32V, S50T, N89Q
B38: Mutation 1-10 (antibody, V domains shown)
VH: B1 VH with D26G, S30T, T31S, S55T, E59D, A105G
VL: B1 VL with T27S, A32V, S50T, I53L, N89Q, N93Q

Target: T1, cTnI quality control product recombinant protein (human, UniProt P19429 1-210, limits assumed)
T1 construct: the assay paragraphs only say cTnI; also called cardiac troponin I; cTnI antigen
T1 sequence (P19429 whole entry): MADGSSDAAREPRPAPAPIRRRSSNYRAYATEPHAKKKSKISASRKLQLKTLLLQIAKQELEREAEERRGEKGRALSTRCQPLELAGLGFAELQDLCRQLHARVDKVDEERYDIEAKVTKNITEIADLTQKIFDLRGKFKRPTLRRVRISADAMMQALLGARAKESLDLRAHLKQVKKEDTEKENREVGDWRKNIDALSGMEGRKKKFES
Test: AMC biosensor, antibody on sensor
Protocol: Operating process: it is equilibrated in Buffer 1 (PBST) for 60 s, the antibody is immobilized in an antibody solution for 300 s, incubated in Buffer 2 (PBST) for 180 s, bound in antigen solution for 420 s, dissociated in the Buffer 2 for 1200 s, 10 mM of GLY solution with pH 1.69 and Buffer 3 are used for sensor regeneration, and data is output.

Row | Binder | Kd [nM] | koff [s⁻¹] | kon [M⁻¹ s⁻¹]
1 | B1 | 31.8 | 0.000922 | 29000
2 | B2 | 1.76 | 2.04e-05 | 11600
3 | B3 | 2.08 | 3.31e-05 | 15900
4 | B4 | 2.98 | 9.97e-05 | 33500
5 | B5 | 7.84 | 0.000217 | 27700
6 | B6 | 4.42 | 7.82e-05 | 17700
7 | B7 | 1.16 | 2.1e-05 | 18100
8 | B8 | 6.54 | 7.12e-05 | 10900
9 | B9 | 9.92 | 0.000262 | 26100
10 | B10 | 1.38 | 2.3e-05 | 16600
11 | B11 | 28.6 | 0.000795 | 27800
12 | B12 | 1.7 | 6.15e-05 | 36200
13 | B13 | 0.548 | 1.78e-05 | 32400
14 | B14 | 28.5 | 0.000741 | 26000
15 | B15 | 75.1 | 0.00221 | 29400
16 | B16 | 0.813 | 2.45e-05 | 30100
17 | B17 | 7.73 | 0.000118 | 15300
18 | B18 | 8 | 0.0004 | 50000
19 | B19 | 2.07 | 6.36e-05 | 30700

Row | Binder | Kd [nM] | koff [s⁻¹] | kon [M⁻¹ s⁻¹]
20 | B20 | 68.4 | 0.00165 | 24100
21 | B21 | 3.29 | 6.88e-05 | 20900
22 | B22 | 48.6 | 0.0017 | 35000
23 | B23 | 4.16 | 0.000138 | 33200
24 | B24 | 5.72 | 0.000211 | 36900
25 | B25 | 51.5 | 0.00131 | 25500
26 | B26 | 9.35 | 0.000105 | 11200
27 | B27 | 9.29 | 0.000173 | 18600
28 | B28 | 1.39 | 6.64e-05 | 47700
29 | B29 | 1.63 | 7.3e-05 | 44900
30 | B30 | 2.3 | 8.41e-05 | 36500
31 | B31 | 4.18 | 6.9e-05 | 16500
32 | B32 | 2.03 | 6.94e-05 | 34100
33 | B33 | 10.8 | 0.000372 | 34400
34 | B34 | 0.941 | 1.39e-05 | 14800
35 | B35 | 1.73 | 8.25e-05 | 47800
36 | B36 | 0.404 | 1.92e-05 | 
37 | B37 | 5.49 | 9.5e-05 | 17300
38 | B38 | 4.19 | 0.000155 | 37000
